This assay relates to mouse ES cell derived-motor neuron / variant human SOD1 (G93A)-expressing astrocyte coculture. Kind of assay: Motor neuron protection in in vitro ALS model derived from mouse ES cells. The format is cell-based. Particulars: antibody A 10, 30, 100 nM; EphA4-Fc 3, 10, 30 nM; KYL peptide 1, 3, 10 μM; 2 days. As for the experimental part: Mouse ES cells were maintained and cultured according to the following steps. Mouse ES cells (129×1/SvJ) cryopreserved at −80° C. were thawed in a thermostat bath and then diluted with a mouse ES cell culture medium (KnockOut(TM) DMEM (Gibco) containing 10% fetal bovine serum (FBS, Gibco), 0.1 mM β-mercaptoethanol (Gibco), 1 mM sodium pyruvate (Invitrogen), 2 mM L-glutamine (Invitrogen), 1% nonessential amino acids (Invitrogen), 100 units/mL penicillin-100 μg/mL streptomycin (Invitrogen), and 1000 units/mL ESGRO(R) leukemia inhibitory factor (Merck Millipore)) warmed to 37° C. Each cell suspension was centrifuged (1500 rpm, 3 min, room temperature), followed by the removal of the supernatant. The cells were suspended in a fresh medium, then transferred to a culture dish with feeder cells inoculated in advance, and maintained and cultured in a CO2 incubator (5% CO2, 37° C.).
Astrocytes were established from a mouse newborn and maintained and cultured according to the following steps. A two-day-old wild-type mouse newborn (C57BL/6JJmsSlc (Japan SLC)) and a hybrid mouse newborn of a wild-type mouse and a variant human SOD1 (G93A) Tg-(B6.Cg-Tg(SOD1_G93A)1Gur/J ([…])) mouse were each euthanized by inhalation anesthesia with isoflurane (Intervet) or decapitation. […]

B1: antibody A: mouse anti-EphA4 monoclonal antibody, IgG1/κ; heavy chain variable region SEQ ID NO: 11, light chain variable region SEQ ID NO: 13 (antibody, listed as Mus musculus, V domains shown)
VH: QIQLVQSGPELKKPGETVKISCKASGYTFTDYSMHWVKQAPGKGLKWMGWINTETGEPTYADDFKGRFAFSLETSASTAYLQINNLKNEDTATYFCARIPLYYYGSRYWYFDVWGAGTTVTVSS
VL: DIQMTQSPASLSVSVGETVTITCRASENIYRNLAWYQQKQGKSPQLLVYAATNLADGVPSRFSGSGSGTQYSLKINSLQSEDFGSYYCQHFWGTPWTFGGGTKLEIK
With B1, the “suppression of motor neuron death / motor neuron protective effect (in words)” value is “suppressed, in a concentration-dependent manner”.
